The test system of data set [1] is HeLa Kyoto. Put plainly: solubility in G1/S (NP-40 vs SDS abundance) (log2 ratio); higher = more soluble. The following applies: cell cycle stage: G1/S.
Data set [2] deals with HeLa Kyoto. Put plainly: solubility change mitosis vs G1/S (difference of NP-40 vs SDS log2 ratios) (log2 ratio difference); higher = more soluble in mitosis.
Data set [3] deals with HeLa Kyoto. Put plainly: thermal stability score vs G1/S (z-score of summed log2 fold changes over temperatures); higher = more thermally stable than in G1/S.
Where [4] appears, read: cell cycle stage: early G1 (4.5 h after nocodazole release).
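Throughout, for solubility change mitosis vs G1/S (difference of NP-40 vs SDS log2 ratios): synchronized HeLa Kyoto cells (double thymidine block for G1/S, nocodazole release for mitosis), protein amounts in NP-40 versus SDS lysates quantified by mass spectrometry, three biological replicates.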
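Throughout, for solubility in G1/S (NP-40 vs SDS abundance): HeLa Kyoto cells arrested at G1/S by double thymidine block, proteins quantified by TMT10plex mass spectrometry in mild NP-40 versus SDS extracts, three biological replicates.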
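Throughout, for thermal stability score vs G1/S (z-score of summed log2 fold changes over temperatures): synchronized HeLa Kyoto cells, proteins quantified by TMT10plex mass spectrometry, three biological replicates, mitosis taken 0.5 h after nocodazole release, G1/S directly after double thymidine block.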

With “MDLDVVNMFVIAGGTLAIPILAFVASFLLWPSALIRIYYWYWRRTLGMQVRYVHHEDYQFCYSFRGRPGHKPSILMLHGFSAHKDMWLSVVKFLPKNLHLVCVDMPGHEGTTRSSLDDLSIDGQVKRIHQFVECLKLNKKPFHLVGTSMGGQVAGVYAAYYPSDVSSLCLVCPAGLQYSTDNQFVQRLKELQGSAAVEKIPLIPSTPEEMSEMLQLCSYVRFKVPQQILQGLVDVRIPHNNFYRKLFLEIVSEKSRYSLHQNMDKIKVPTQIIWGKQDQVLDVSGADMLAKSIANCQVELLENCGHSVVMERPRKTAKLIIDFLASVHNTDNNKKLD [ABHD6]”, the “solubility in G1/S (log2)” value in data set [1] was -0.209. In addition, in data set [2], the “solubility change mitosis (log2)” value is -0.0832. For the same sequence, the thermal stability score in data set [3] (setting [4]) is 0.51; in data set [3] (cell cycle stage: mitosis), -0.118.
In the case of “MDLPVDEWKSYLLQKWASLPTSVQVTISTAETLRDIFLHSSSLLQPEDELFLKRLSKGYLVGKDSDAPLFYREEGNKKFQEKDYTGAAVLYSKGVSHSRPNTEDMSLCHANRSAALFHLGQYETCLKDINRAQTHGYPERLQPKIMLRKAECLVALGRLQEASQTISDLERNFTATPALADVLPQTLQRNLHRLKMKMQEKDSLTESFPAALAKTLEDAALREENEQLSNASSSIGLCVDPLKGRCLVATKDILPGELLVQEDAFVSVLNPGELPPPHHGLDSKWDTRVTNGDLYCHRCLKHTLATVPCDGCSYAKYCSQECLQQAWELYHRTECPLGGLLLTLGVFCHIALRLTLLVGFEDVRKIITKLCDKISNKDICLPESNNQVKTLNYGLGESEKNGNIVETPIPGCDINGKYENNYNAVFNLLPHTENHSPEHKFLCALCVSALCRQLEAASLQAIPTERIVNSSQLKAAVTPELCPDVTIWGVAMLRHMLQLQCNAQAMTTIQHTGPKGSIVTDSRQVRLATGIFPVISLLNHSCSPNTSVSFISTVATIRASQRIRKGQEILHCYGPHKSRMGVAERQQKLRSQYFFDCACPACQTEAHRMAAGPRWEAFCCNSCGAPMQGDDVLRCGSRSCAESAVSRDHLVSRLQDLQQQVRVAQKLLRDGELERAVQRLSGCQRDAESFLWAEHAVVGEIADGLARACAALGDWQKSATHLQRSLYVVEVRHGPSSVEMGHELFKLAQIFFNGFAVPEALSTIQKAEEVLSLHCGPWDDEIQELQKMKSCLLDLPPTPVGPAL [SMYD4]”, in data set [1], the “solubility in G1/S (log2)” value was -0.119. In data set [2], the “solubility change mitosis (log2)” value came out at 0.000145. For the same sequence, the values for the thermal stability score in data set [3] (setting [4]) and in data set [3] (cell cycle stage: mitosis) were 0.716 and 0.631, respectively.
Turning to “MDSSAVITQISKEEARGPLRGKGDQKSAASQKPRSRGILHSLFCCVCRDDGEALPAHSGAPLLVEENGAIPKQTPVQYLLPEAKAQDSDKICVVIDLDETLVHSSFKPVNNADFIIPVEIDGVVHQVYVLKRPHVDEFLQRMGELFECVLFTASLAKYADPVADLLDKWGAFRARLFRESCVFHRGNYVKDLSRLGRDLRRVLILDNSPASYVFHPDNAVPVASWFDNMSDTELHDLLPFFEQLSRVDDVYSVLRQPRPGS [CTDSP1]”, the “solubility in G1/S (log2)” value in data set [1] was -0.148. In addition, in data set [2], the “solubility change mitosis (log2)” value was -0.0207. The thermal stability score in data set [3] (setting [4]) was found to be 0.748; in data set [3] (cell cycle stage: mitosis), 0.982.
In the case of “MDTTAAAALPAFVALLLLSPWPLLGSAQGQFSAGGCTFDDGPGACDYHQDLYDDFEWVHVSAQEPHYLPPEMPQGSYMIVDSSDHDPGEKARLQLPTMKENDTHCIDFSYLLYSQKGLNPGTLNILVRVNKGPLANPIWNVTGFTGRDWLRAELAVSTFWPNEYQVIFEAEVSGGRSGYIAIDDIQVLSYPCDKSPHFLRLGDVEVNAGQNATFQCIATGRDAVHNKLWLQRRNGEDIPVAQTKNINHRRFAASFRLQEVTKTDQDLYRCVTQSERGSGVSNFAQLIVREPPRPIAPPQLLGVGPTYLLIQLNANSIIGDGPIILKEVEYRMTSGSWTETHAVNAPTYKLWHLDPDTEYEIRVLLTRPGEGGTGLPGPPLITRTKCAEPMRTPKTLKIAEIQARRIAVDWESLGYNITRCHTFNVTICYHYFRGHNESKADCLDMDPKAPQHVVNHLPPYTNVSLKMILTNPEGRKESEETIIQTDEDVPGPVPVKSLQGTSFENKIFLNWKEPLDPNGIITQYEISYSSIRSFDPAVPVAGPPQTVSNLWNSTHHVFMHLHPGTTYQFFIRASTVKGFGPATAINVTTNISAPTLPDYEGVDASLNETATTITVLLRPAQAKGAPISAYQIVVEELHPHRTKREAGAMECYQVPVTYQNAMSGGAPYYFAAELPPGNLPEPAPFTVGDNRTYQGFWNPPLAPRKGYNIYFQAMSSVEKETKTQCVRIATKAATEEPEVIPDPAKQTDRVVKIAGISAGILVFILLLLVVILIVKKSKLAKKRKDAMGNTRQEMTHMVNAMDRSYADQSTLHAEDPLSITFMDQHNFSPRYENHSATAESSRLLDVPRYLCEGTESPYQTGQLHPAIRVADLLQHINLMKTSDSYGFKEEYESFFEGQSASWDVAKKDQNRAKNRYGNIIAYDHSRVILQPVEDDPSSDYINANYIDGYQRPSHYIATQGPVHETVYDFWRMIWQEQSACIVMVTNLVEVGRVKCYKYWPDDTEVYGDFKVTCVEMEPLAEYVVRTFTLERRGYNEIREVKQFHFTGWPDHGVPYHATGLLSFIRRVKLSNPPSAGPIVVHCSAGAGRTGCYIVIDIMLDMAEREGVVDIYNCVKALRSRRINMVQTEEQYIFIHDAILEACLCGETAIPVCEFKAAYFDMIRIDSQTNSSHLKDEFQTLNSVTPRLQAEDCSIACLPRNHDKNRFMDMLPPDRCLPFLITIDGESSNYINAALMDSYRQPAAFIVTQYPLPNTVKDFWRLVYDYGCTSIVMLNEVDLSQGCPQYWPEEGMLRYGPIQVECMSCSMDCDVINRIFRICNLTRPQEGYLMVQQFQYLGWASHREVPGSKRSFLKLILQVEKWQEECEEGEGRTIIHCLNGGGRSGMFCAIGIVVEMVKRQNVVDVFHAVKTLRNSKPNMVEAPEQYRFCYDVALEYLESS [PTPRK]”, in data set [1], the “solubility in G1/S (log2)” value turned out to be 0.0167. Besides, the “solubility change mitosis (log2)” value in data set [2] is -0.0752. For the same sequence, the thermal stability score in data set [3] (setting [4]) worked out at 1.97; in data set [3] (cell cycle stage: mitosis), 1.47.

The record behind these values is the supplement of paper PMC5998384.
